# Paper PMC12734981, “A CALB-like Cold-Active Lipolytic Enzyme from Pseudonocardia antarctica: Expression, Biochemical Characterization, and AlphaFold-Guided Dynamics” (Marine Drugs, 2025)
# B1: PanLipΔN (Pseudonocardia alni) (protein)
# chain: TLPDETFGPVDRPGPALSVPPDQLDAAVRCSANATDADRDVALFVPGTTLTPEVNFGFNWFAALDDLGRPYCSVTLPNNAMTDTQIAAEYVVHAIRHVHGISGRKVDVLGHSQGGTEPRFALRFWPDLRGMVDDYVAFGTTNHGSIAINAALCTPATGCAEALWQQTLNSHYTQAMNSYQETFAGISYTQIYTRTDEFVQPNLDDSGTTSLHGGGGEISNVALQDVCLTEAASEHIAVGTYSPVAYALATDALDHDGPADPARVDRGVCTQVFMPGVDPLTFPTDYAATLGLIANQLALAPRVGSEPELRPYTLADDRQG
# notes: Signal peptide (30 residues) and proline-rich putative propeptide (27 residues) removed; ~first 57 residues missing (methods say first 27 of full-length); starts at TLPDE by primer; ends KQNLLE; pET-28a(+) NdeI/XhoI, His tag; codon-optimized; E. coli SHuffle T7 Express; Ni-NTA purified; Precursor length printed as both 324 and 377 residues
# Legend:
# [1] = substrate: CCCC(=O)Oc1ccc([N+](=O)[O-])cc1; experiment: p-nitrophenol release, initial rates, nonlinear Michaelis-Menten fit; format: biochemical, Pseudonocardia alni; conditions: 100 mM Tris-HCl pH 7.4, 100 mM NaCl, 25 °C
# [2] = substrate: CC(=O)Oc1ccc([N+](=O)[O-])cc1; experiment: as above; format: biochemical, Pseudonocardia alni; conditions: 100 mM Tris-HCl pH 7.4, 100 mM NaCl, 25 °C
protein,measurement,setting,value
B1,Km,[1],2830 ± 1560 µM
same,kcat,[1],9.7 ± 1.8 s⁻¹
same,Km,[2],66.8 ± 18.5 µM
same,kcat,[2],16.2 ± 1.8 s⁻¹
